Results: the Immune Epitope Database (IEDB)

Assays:
HLA-A*02:02 = assay: IEDB peptide-MHC binding, purified MHC/competitive/radioactivity; filed as Kd, often an IC50 or EC50 that approximates it; ≥ and ≤ were set here for values at or beyond the usual limits of such assays
HLA-A*02:03 = assay: as above
HLA-A*02:06 = assay: as above
HLA-A*26:01 = assay: as above
HLA-A*23:01 = assay: as above
HLA-A*24:02 = assay: as above
HLA-A*01:01 = assay: as above
HLA-A*30:02 = assay: as above
HLA-A*02:01 = assay: IEDB peptide-MHC binding, purified MHC/competitive/fluorescence; ≥ and ≤ were set here for values at or beyond the usual limits of such assays
HLA-B*58:01 = assay: IEDB peptide-MHC binding, purified MHC/direct/fluorescence; filed as Kd, often an IC50 or EC50 that approximates it; ≥ and ≤ were set here for values at or beyond the usual limits of such assays; details: source organism: Mycobacterium tuberculosis
[1] = source organism: Lassa virus Josiah
[2] = source organism: Dengue virus 1 Brazil/97-11/1997
[3] = source organism: SARS coronavirus Tor2
[4] = source organism: Dengue virus 2 Jamaica/1409/1983
[5] = source organism: Dengue virus 4 Philippines/H241/1956
[6] = source organism: Variola major virus
[7] = source organism: Vaccinia virus WR
[8] = source organism: Zaire ebolavirus
[9] = source organism: Dengue virus 3 Martinique/1243/1999

| Sequence | Kd (HLA-A*02:02; [7]) | Kd (HLA-A*02:03; [7]) | Kd (HLA-A*02:06; [7]) | also measured |
| --- | --- | --- | --- | --- |
| LNISGYNFSL | – | – | – | Kd (HLA-A*02:02; [1]): 0.0155 µM; Kd (HLA-A*02:03; [1]): 4.55 µM; Kd (HLA-A*02:06; [1]): 0.42 µM |
| LTFIKTTLSL | – | – | – | Kd (HLA-A*26:01; [2]): 11.4 µM |
| LVIGFLFLA | – | – | – | Kd (HLA-A*02:02; [3]): 0.00738 µM; Kd (HLA-A*02:03; [3]): 0.0196 µM; Kd (HLA-A*02:06; [3]): ≤ 0.0001 µM |
| LWMASVEPHW | – | – | – | Kd (HLA-A*23:01; [2]): 0.13 µM; Kd (HLA-A*24:02; [2]): 0.231 µM |
| LYAVATTFVT | – | – | – | Kd (HLA-A*24:02; [4]): 0.55 µM |
| MSYTMCSGKF | – | – | – | Kd (HLA-A*01:01; [5]): 7.72 µM; Kd (HLA-A*26:01; [5]): 1.51 µM; Kd (HLA-A*30:02; [5]): 0.0818 µM |
| NLDDVYSYI | – | – | – | Kd (HLA-A*02:02; [6]): 0.000722 µM; Kd (HLA-A*02:03; [6]): 0.096 µM; Kd (HLA-A*02:06; [6]): 0.0918 µM |
| NLTIAWPRM | – | – | – | IC50 (HLA-A*02:01; source organism: Human alphaherpesvirus 1 strain 17): ≥ 50 µM |
| NLYISDYKML | 1.25 µM | 1.83 µM | ≥ 36 µM | – |
| NSEQGGRAY | – | – | – | Kd (HLA-A*01:01; source organism: Dengue virus 1 Singapore/S275/1990): 0.316 µM |
| NTNQGNILM | 1.7 µM | 1.15 µM | 5.94 µM | – |
| NTYKRSGIM | – | – | – | Kd (HLA-A*26:01; [2]): 6.55 µM |
| PIPYSRVNHA | 11.7 µM | 15.3 µM | 1.45 µM | – |
| PRCRYVHKV | – | – | – | IC50 (HLA-A*02:01; [8]): ≥ 3070 µM |
| PTRTWKVLSI | ≥ 41.9 µM | 15.1 µM | ≥ 69.8 µM | – |
| PTSETMYLTM | 0.862 µM | 0.191 µM | 0.915 µM | – |
| PYLGKREDQW | – | – | – | Kd (HLA-A*23:01; [4]): 1.39 µM; Kd (HLA-A*24:02; [4]): 2.98 µM |
| PYMPTVIEHL | – | – | – | Kd (HLA-A*23:01; [9]): 0.0434 µM; Kd (HLA-A*24:02; [9]): 0.0462 µM |
| QFLFQLNDT | – | – | – | IC50 (HLA-A*02:01; source organism: Sudan ebolavirus): 10.8 µM |
| QILDNAAKYV | 3.93 µM | 3.87 µM | 11.4 µM | – |
| QKAALSEGVY | – | – | – | Kd (HLA-A*30:02; source organism: Dengue virus 4 Singapore/8976/1995): 0.139 µM |
| QLYTISSESL | 0.0717 µM | 0.245 µM | 4.75 µM | – |
| QVKELGIAI | 9.05 µM | 0.882 µM | 3.71 µM | – |
| QYIYMGEPLE | – | – | – | Kd (HLA-A*24:02; [4]): 9.09 µM |
| RLDDDGNFQL | – | – | – | IC50 (HLA-A*02:01; source organism: West Nile virus NY-99): 0.847 µM |
| RSTYRLDGW | – | – | – | Kd (HLA-B*58:01): 0.0453 µM |
| RTRLYDYFT | 7.1 µM | 3.05 µM | ≥ 48.5 µM | – |
| SAEVERLMEL | 1.28 µM | 2.5 µM | 1.25 µM | – |
| SGLLIVKTV | – | – | – | IC50 (HLA-A*02:01; [8]): 2.29 µM |
